Here are results for one molecule from patent publication US20260258113A1 (US Dept. of Health and Human Services, published 2026).

This assay has as its target T1, purified human alpha globin, biotinylated and immobilized on streptavidin biosensors (human, UniProt P69905 2-142, biotinylated using EZ-Link NHS-PEG4 Biotinylation Kit (sites not given)).
T1 construct: Ligand on the sensor in the bio-layer interferometry assay; also called full-length alpha globin
Nature of the assay: bio-layer interferometry (Octet RED96), biotinylated alpha globin on streptavidin sensors, AHSP in solution at 62.5-1000 nM; AHSP as analyte on immobilized alpha globin (FIG. 2D).

T1 sequence (P69905 2-142 limits assumed): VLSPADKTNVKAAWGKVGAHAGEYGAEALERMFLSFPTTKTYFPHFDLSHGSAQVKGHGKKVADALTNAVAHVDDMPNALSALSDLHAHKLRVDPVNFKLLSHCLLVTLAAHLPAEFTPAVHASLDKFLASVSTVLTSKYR

B1: alpha hemoglobin stabilizing protein (other, UniProt Q9NZD4 1-102, looked up)
chain: MALLKANKDLISAGLKEFSVLLNQQVFNDPLVSEEDMVTVVEDWMNFYINYYRQQVTGEPQERDKALQELRQELNTLANPFLAKYRDFLKSHELPSHPPPSS
notes: Comparison analyte in the BLI assay; also called AHSP
B1 came in with a Kd of 109 nM.
